± gives the standard deviation of the averaged measurements.
System: Saccharomyces cerevisiae
Experiment: protein stability index of tFT-peptide fusion (C-terminal peptide) (PSI (0-1 scale)); higher = more stable (slower turnover)
Conditions: temperature: 30 C
Method: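 MPS profiling in S. cerevisiae of the yeast C-terminome library: the last 12 aa of each annotated ORF are fused to the C-terminus of a sfGFP-mCherry timer, after a GGGS linker. Cells are FACS-sorted into 8 mCherry/sfGFP bins and deep-sequenced. PSI runs from 0 (unstable) to 1 (stable); wild type and das1Δ backgrounds, two technical replicates each.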

[1] = genetic background: das1 deletion

| Sequence | protein stability index [1] | protein stability index (genetic background: wild type) |
| --- | --- | --- |
| IQAKLKISVHDI [BEM1 C-terminal 12 aa] | 0.674 ± 0.0062 | 0.681 ± 0.0069 |
| RQLGSKQRKHRL [ECI1 C-terminal 12 aa] | 0.786 ± 0.021 | 0.82 ± 0.026 |
| QSADAAGVVKKH [GCN20 C-terminal 12 aa] | 0.683 ± 0.011 | 0.726 ± 0.028 |
| DFVYNEEDFEKL [NOT5 C-terminal 12 aa] | 0.718 ± 0.015 | 0.681 ± 0.014 |
| RLVVEPLQGRKH [ISD11 C-terminal 12 aa] | 0.729 ± 0.011 | 0.72 ± 0.036 |
| LKKIATKFWGKH [TRK2 C-terminal 12 aa] | 0.697 ± 0.016 | 0.714 ± 0.066 |
| YMMNSQSPRGKI [POM34 C-terminal 12 aa] | 0.71 ± 0.0093 | 0.732 ± 0.074 |
| KIVIPDKFIQHI [HRD1 C-terminal 12 aa] | 0.673 ± 0.025 | 0.706 ± 0.028 |
| VEGGGVQYTIVS [YDL023C C-terminal 12 aa] | 0.679 ± 0.0039 | 0.669 ± 0.0067 |
| LTWSLAYSGAFS [ACF2 C-terminal 12 aa] | 0.7217 ± 0.0012 | 0.686 ± 0.013 |
| LLSAILDPSKSK [MED11 C-terminal 12 aa] | 0.709 ± 0.021 | 0.699 ± 0.046 |
| EQAAKYIEYLNL [RAD10 C-terminal 12 aa] | 0.817 ± 0.019 | 0.603 ± 0.045 |
| RQSRERALGIKR [PRP22 C-terminal 12 aa] | 0.6929 ± 0.0054 | 0.701 ± 0.036 |
| TIITKYEMLVRT [YOL134C C-terminal 12 aa] | 0.52 ± 0.015 | 0.5399 ± 0.0028 |
| ITQARANTWLVV [YOR024W C-terminal 12 aa] | 0.654 ± 0.02 | 0.648 ± 0.0088 |
| EKQYVKILDDTH [CSF1 C-terminal 12 aa] | 0.716 ± 0.011 | 0.695 ± 0.037 |
| TSTLAVIPYPAF [YLR466C-B C-terminal 12 aa] | 0.7177 ± 0.0022 | 0.755 ± 0.045 |
| GIDLNSIKWSGH [NFS1 C-terminal 12 aa] | 0.718 ± 0.012 | 0.709 ± 0.012 |
| MLCTLTGYQNND [NUP192 C-terminal 12 aa] | 0.7282 ± 0.0051 | 0.685 ± 0.017 |
| GGQNSPGDMAVA [YDL199C C-terminal 12 aa] | 0.692 ± 0.011 | 0.741 ± 0.068 |
| VIKCFTSSDMTS [NAG1 C-terminal 12 aa] | 0.701 ± 0.026 | 0.683 ± 0.053 |

| Sequence | protein stability index [1] | protein stability index (genetic background: wild type) |
| --- | --- | --- |
| NELRMSSSSLTN [VHS1 C-terminal 12 aa] | 0.6718 ± 0.0013 | 0.693 ± 0.0083 |
| TSGGSIVLKGSS [YGR068W-A C-terminal 12 aa] | 0.701 ± 0.026 | 0.6688 ± 0.0037 |
| MKGPAALWDVQF [ARP9 C-terminal 12 aa] | 0.724 ± 0.012 | 0.744 ± 0.044 |
| QLKKSKVSVELE [MAK11 C-terminal 12 aa] | 0.6803 ± 0.0023 | 0.687 ± 0.047 |
| IAEEIISMFAEN [YNR064C C-terminal 12 aa] | 0.692 ± 0.031 | 0.723 ± 0.016 |
| KKVLLQAKQYSK [UBC9 C-terminal 12 aa] | 0.678 ± 0.017 | 0.682 ± 0.031 |
| SSSSTSSSATKN [TPS1 C-terminal 12 aa] | 0.703 ± 0.017 | 0.685 ± 0.047 |
| SVSDPVKSEDSS [NCB2 C-terminal 12 aa] | 0.68 ± 0.034 | 0.689 ± 0.033 |
| IIRDFLIEKGFI [YNL320W C-terminal 12 aa] | 0.731 ± 0.024 | 0.667 ± 0.009 |
| EVSTEDTVHDEL [EUG1 C-terminal 12 aa] | 0.675 ± 0.0097 | 0.683 ± 0.041 |
| GGFLSFGGGYDE [AIM25 C-terminal 12 aa] | 0.712 ± 0.034 | 0.726 ± 0.013 |
| VEFKYPEEIFHG [TPP1 C-terminal 12 aa] | 0.712 ± 0.012 | 0.6782 ± 0.0027 |
| CIVNLASDTISL [YOL150C C-terminal 12 aa] | 0.709 ± 0.0077 | 0.667 ± 0.01 |
| ANTHSSLICSKP [YBR209W C-terminal 12 aa] | 0.6854 ± 0.0039 | 0.701 ± 0.044 |
| QNLDENVWRTPI [SSP1 C-terminal 12 aa] | 0.692 ± 0.011 | 0.672 ± 0.032 |
| ILGNYRDIFKQA [RGA2 C-terminal 12 aa] | 0.726 ± 0.014 | 0.266 ± 0.077 |
| SLNRPAERGGNR [YNL143C C-terminal 12 aa] | 0.69578 ± 0.00021 | 0.688 ± 0.041 |
| MYGLGIRDCCIM [RCY1 C-terminal 12 aa] | 0.7921 ± 0.0075 | 0.776 ± 0.088 |
| VTGKEKFEKLRD [SPG3 C-terminal 12 aa] | 0.724 ± 0.0027 | 0.685 ± 0.024 |
| VMPIFIYFYTVV [CDC1 C-terminal 12 aa] | 0.38 ± 0.044 | 0.343 ± 0.0079 |
| KVTKAAQKAAKK [YPR080W; YBR118W C-terminal 12 aa] | 0.678 ± 0.0078 | 0.696 ± 0.012 |

| Sequence | protein stability index [1] | protein stability index (genetic background: wild type) |
| --- | --- | --- |
| TPLGQTLLDSRR [DAL1 C-terminal 12 aa] | 0.6757 ± 0.0015 | 0.67 ± 0.011 |
| PVTAIALLEARR [YER190C-A C-terminal 12 aa] | 0.6783 ± 0.005 | 0.65 ± 0.01 |
| SFCYVSACGRTQ [YFL021C-A C-terminal 12 aa] | 0.677 ± 0.0097 | 0.709 ± 0.018 |
| KQNSSITQKNSS [EPL1 C-terminal 12 aa] | 0.71115 ± 0.00071 | 0.697 ± 0.031 |
| LLPLIYLINKSL [YMR013C-A C-terminal 12 aa] | 0.622 ± 0.014 | 0.199 ± 0.022 |
| QEEEEDVATDSE [YRO2 C-terminal 12 aa] | 0.677 ± 0.014 | 0.711 ± 0.034 |
| HLNESVYSKPLP [YIL028W C-terminal 12 aa] | 0.6938 ± 0.0028 | 0.678 ± 0.065 |
| HAQKRVSNASAR [SKI6 C-terminal 12 aa] | 0.6983 ± 0.0028 | 0.6988 ± 0.0036 |
| IAVNYGQKDLIE [BRR1 C-terminal 12 aa] | 0.697 ± 0.033 | 0.669 ± 0.014 |
| SLDITEDWEVIF [ROT2 C-terminal 12 aa] | 0.725 ± 0.023 | 0.7587 ± 0.0031 |
| GAHDDMDNGDDW [LAS17 C-terminal 12 aa] | 0.689 ± 0.01 | 0.663 ± 0.015 |
| VAVASASSSASS [VPH1 C-terminal 12 aa] | 0.683 ± 0.019 | 0.682 ± 0.032 |
| LIEKNFLSSHAG [YJR071W C-terminal 12 aa] | 0.7159 ± 0.0042 | 0.708 ± 0.022 |
| EYLQSMKTSINR [SFB2 C-terminal 12 aa] | 0.69 ± 0.024 | 0.695 ± 0.024 |
| QRELKKVDGTPI [RCI50 C-terminal 12 aa] | 0.6851 ± 0.0065 | 0.741 ± 0.0098 |
| ELAYKSFYALLD [VPS28 C-terminal 12 aa] | 0.691 ± 0.019 | 0.702 ± 0.045 |
| LSADGIYTAVPN [PAU17 C-terminal 12 aa] | 0.695 ± 0.018 | 0.702 ± 0.011 |
| IDMLKMSNAEEY [YLR012C C-terminal 12 aa] | 0.672 ± 0.015 | 0.6642 ± 0.0041 |
| DNGRIIITGIPN [ECM5 C-terminal 12 aa] | 0.681 ± 0.024 | 0.675 ± 0.033 |
| SRVDEVVTKYSH [AAH1 C-terminal 12 aa] | 0.7 ± 0.029 | 0.667 ± 0.028 |
| SKLGINSGLCTN [ESL1 C-terminal 12 aa] | 0.683 ± 0.01 | 0.688 ± 0.03 |

| Sequence | protein stability index [1] | protein stability index (genetic background: wild type) |
| --- | --- | --- |
| EEMIRSSSLYDE [ACA1 C-terminal 12 aa] | 0.7312 ± 0.0059 | 0.711 ± 0.029 |
| LLTYFRKHVKDT [SCC2 C-terminal 12 aa] | 0.714 ± 0.043 | 0.572 ± 0.054 |
| QIFSLPAVTYNK [REC102 C-terminal 12 aa] | 0.693 ± 0.018 | 0.743 ± 0.055 |
| IREFLEEIVDTQ [SUS1 C-terminal 12 aa] | 0.725 ± 0.081 | 0.728 ± 0.091 |
| WYQIVVQMIYIC [PSY1 C-terminal 12 aa] | 0.186 ± 0.0065 | 0.0907 ± 0.006 |
| LVIDQITQLRQQ [COG1 C-terminal 12 aa] | 0.6966 ± 0.0015 | 0.6158 ± 0.0047 |
| STFSKPFSTISK [VHR2 C-terminal 12 aa] | 0.6906 ± 0.0026 | 0.682 ± 0.059 |
| KITEKWTHKDFK [NOP53 C-terminal 12 aa] | 0.688 ± 0.027 | 0.719 ± 0.058 |
| KNVMRRGQFMKR [GRC3 C-terminal 12 aa] | 0.681 ± 0.013 | 0.753 ± 0.048 |
| HWRSVYDEFGEL [APE1 C-terminal 12 aa] | 0.721 ± 0.01 | 0.701 ± 0.024 |
| NDGTFLDEVTKN [OPI10 C-terminal 12 aa] | 0.6922 ± 0.0066 | 0.687 ± 0.03 |
| DAAIVKKYKNKT [NUP57 C-terminal 12 aa] | 0.687 ± 0.025 | 0.692 ± 0.033 |
| VYLSVIILMGNG [EMA17 C-terminal 12 aa] | 0.212 ± 0.024 | 0.247 ± 0.012 |
| LITSHCCYWNKR [YBL039C-A C-terminal 12 aa] | 0.6928 ± 0.0067 | 0.52 ± 0.033 |
| FGGVRSPKMRRL [MRPS18 C-terminal 12 aa] | 0.72 ± 0.017 | 0.681 ± 0.042 |
| KNDKIHLFMYCT [YBR103C-A C-terminal 12 aa] | 0.54 ± 0.022 | 0.536 ± 0.0038 |
| PSGNIVMERLDE [UBX3 C-terminal 12 aa] | 0.6901 ± 0.0013 | 0.64 ± 0.021 |
| SNFSRTLGLEFI [YGL041C C-terminal 12 aa] | 0.711 ± 0.0098 | 0.716 ± 0.077 |
| NTGSKKSVPTSS [AQY3 C-terminal 12 aa] | 0.7037 ± 0.0017 | 0.732 ± 0.068 |
